What was measured:
[1] = system: hepatocelluer carcinoma cell line QYC; test: Antigen binding activity by FCM; design: species or system human; conditions: compared with chSM5-1
Description: The humanized VL and VH were cloned into pMG18-3K expression vector and was expressed transiently in COS cells, yielding humanized version. Humanized antibody in COS cell culture supernatant was quantitated by ELISA and the binding of this version to hepatocelluer carcinoma cell line QYC was determined by FCM. […] The important FR residues that may have influences on binding activity were analyzed and the backmutation assay was carried out. […] The humanized version was designated as ReSM5-1 and its amino acid sequence and nucleotide sequence of both the heavy chain and the light chain shown in Table 3 below.

QYC cells = test: Antibody-dependent cell mediated cytotoxicity (ADCC); type: cell-based, human; conditions: PBL effector to target ratio 20:1, 7 h, FIG. 7
Description: Venous blood was taken sterilely from healthy donor and put into sterile 15 ml centrifuge tube containing 20 U/ml heparin. The solution was carefully mixed and equal volume of sterilized PBS was added to dilute the blood.
In a 15 ml centrifuge tube, 6 ml room temperature pre-warmed 100% lymphocytes isolation fluid (obtained from CACS, Cellular Biology Institute) was added. Along the tube wall of the tilted tube, 6 ml diluted anti-coagulation peripheral blood was added slowly into the tube without damaging the interface.
The tube was centrifuged at 20° C., 800 g for 30 min with brake turned off. After the centrifuge, three layers were formed. The three layers (from above to the bottom) were blood plasma layer, cell separation liquid layer, red and granular cell layer. A white frosted glass-like layer between the plasma layer and cell separation liquid layer was the layer containing lymphocytes and mononuclear cells. This white layer was taken out using a pipette and put into another 15 ml sterile centrifuge tube. PBS was added into the centrifuge tube to dilute the PBL suspension and then centrifuged at 200 g for 5 min. The pellet was washed 2 times with PBS. […]
QYC cells at the logistically growing stage were taken out from incubator. […] Cells were counted, and the concentration was adjusted to 3×10^5/ml. […]
Cytotoxicity Detection Kit by Roche's Corporation was used. […] OD was read at 490 nm.

SM5-1 antigen = test: Competition binding assay
[2] = target: human SM5-1 antigen (human); test: BIAcore (SPR), method of Karlsson et al.; antigen preparation and format not stated

Row | Kd [2] | Molecule | antigen binding activity [1] | anti-neoplasm effect via ADCC (QYC cells) | avidity (SM5-1 antigen)
1 | 9.31 nM | humanized anti-SM5-1 antibody (ReSM5-1) (antibody, V domains shown) VH: QVQLVQSGGGVVQPGRSLRLSCKASGYTFTSYVMHWVRQAPGKGLEWIGYIVPYNDGTKYNEKFKGRFTISSDKSKSTAFLQMDSLRPEDTAVYYCARGSRYDWYLDYWGQGTPVTVSS VL: NIMMTQSPSSLSASVGDRVTITCKSSQSVLYSSNQKNYLAWYQQTPGKAPKLLIYWASTRESGVPSRFSGSGSGTDYTFTISSLQPEDIATYYCHQYFSSYTFGQGTKLQITR | same antigen binding activity as chSM5-1 | induced the apoptosis and inhibit the growth of tumor cells through ADCC pathway | equivalent avidity as the murine SM5-1 or chimeric SM5-1 antibody
2 | – | chSM5-1: mouse-human chimeric antibody with mSM5-1 variable regions (SEQ ID NO:3, 4) and human constant regions (antibody, V domains shown, human constant regions; Mus Musculus) VH: EVQLQQSGPELVKPGASVKMSCKASGYTFTSYVMHWVKQKPGQGLDWIGYIVPYNDGTKYNEKFKGKATLTSDKSSSTAYMELSRLTSEDSAVYYCVYGSRYDWYLDVWGAGTTVTVSS VL: NIMMTQSPSSLAVSAGEKVTMSCKSSQSVLYSSNQKNYLAWYQQKPGQSPKLLIYWASTRESGVPDRFTGSGSGTDFTLTISSVQAEDLAVYYCHQYFSSYTFGGGTKLEIKR | – | induced the apoptosis and inhibit the growth of tumor cells through ADCC pathway | –
